1 substance from patent publication US20100016221A1, “METHOD OF DEGRADING PROTEIN BY CHAPERONE-MEDIATED AUTOPHAGY” (RIKEN, priority 2008, published 2010) can be followed below.

The target of test [1] is T1, tNhtt-60Q (Homo sapiens, UniProt P42858, INS38QQQQQQQQQQQQQQQQQQQQQQQQQQQQQQQQQQQQQQQ).
T1 construct: N-terminal fragment of human huntington exon 1 (tNhtt) encoding 60 CAG repeats; expressed in transfected cells; host or cells: Neuro2a cells, transient co-transfection
The test is described as follows: Dot blot of purified intact lysosomes from Neuro2a cells co-transfected with tNhtt-60Q. In kind it is cell-based. Particulars: 16 hours. The method, then:
We used a modification of the previously described method for the purification of lysosomes from CHO cells (E. A. Madden, B. Storrie, Anal. Biochem. 163, 2 (1987), E. A. Madden, J. B. Wirt, B. Storrie, Arch. Biochem. Biophys. 257, 1 (1987)). Neuro2a cells grown in 10 cm dishes were co-transfected with tNhtt-60Q and tested constructs, and after 16 hrs of incubation, cells were washed with ice cold PBS and homogenized by ten strokes. The homogenate was centrifuged at 1300 g for 5 min. The supernatant was decanted and placed on ice. The nuclear fraction was resuspended in 0.25 M sucrose and centrifuged at 1300 g for 5 min. This step was repeated 3 times and the supernatants from each wash were pooled to give a total post-nuclear supernatant (PNS). All the solutions used for the preparation of the discontinuous gradient were in 0.25 M sucrose. Gradients were prepared in cellulose nitrate tubes for Beckman SW40 rotor. Two ml of 35% Histodenz (Sigma) was overlaid with 2 ml of 17% Histodenz followed by 5 ml of 6% Percoll (Sigma). The tubes were then filled with 4.8 ml of PNS. […]
Cells were washed twice with ice-cold PBS, scraped, and resuspended in lysis buffer (0.5% Triton X-100 in PBS, 0.5 mM phenylmethylsulfonyl fluoride, Complete protease inhibitor mixture (Roche Applied Sciences)). […] Immunoreactive proteins were detected with enhanced chemiluminescence reagents (Amersham Biosciences). […]

Test [2] addresses T2, 150Q-EGFP (Homo sapiens, UniProt P42858).
T2 construct: N-terminal fragment of human huntington exon 1 (tNhtt); expressed in transfected cells; host or cells: Neuro2a cells, transient co-transfection (pcDNA3.1)
The test is described as follows: Co-transfection with 150Q-EGFP in Neuro2a cells, confocal imaging with Lysotracker-rhodamine. In kind it is cell-based. Particulars: co-expression for 16 hours. The text has this:
The construction of the N-terminal fragment of human huntington exon 1 (tNhtt) encoding 60 CAG repeats was previously described (G. H. Wang et al., Neuroreport 10, 12(1999)). This fragment was fused to the N-terminal of a variant of yellow fluorescent protein (Venus) (T. Nagai et al., Nat. Biotechnol. 20, 1 (2002)) and inserted into the pcDNA3.1 vector (60Q). Two Hsc70 binding motifs (HSC70bm) (SEQ ID NOs:9 and 10: in bold) were inserted between the Cfr13I and BamHI cutting sites of 60Q: 5′-GTTAAGAAGGATCAA-GCTGGAGCCGCTGCACCG-AAGTTCGAACGTCAA-3′ (SEQ ID NO:11). The tNhtt-16Q-EGFP and tNhtt-150Q-EGFP plasmids for transient transfection were prepared by the introduction of the coding sequence into pcDNA3.1 vector (Invitrogen). […]
To investigate whether the (R)HQ targets the polyQ to lysosomes, the present inventors co-transfected HQ or other constructs with 16Q-EGFP or 150Q-EGFP to Neuro2a cells for 16 hours. In the cells expressing 16Q-EGFP, none of the co-transfected constructs had any effect on the subcellular distribution of the green fluorescence (FIG. 2C). […] To confirm this observation, the present inventors co-transfected the tested constructs with tNhtt-60Q to Neuro2a cells, 16 hours later purified intact lysosomes and analyzed them for the presence of the polyQ protein. […]

T1 sequence (P42858 with tags, fused parts or gaps with the stated changes): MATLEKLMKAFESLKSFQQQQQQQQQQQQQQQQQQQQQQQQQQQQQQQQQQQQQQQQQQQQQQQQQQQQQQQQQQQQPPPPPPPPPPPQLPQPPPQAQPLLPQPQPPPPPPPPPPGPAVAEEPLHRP
T2 sequence (P42858 with tags, fused parts or gaps): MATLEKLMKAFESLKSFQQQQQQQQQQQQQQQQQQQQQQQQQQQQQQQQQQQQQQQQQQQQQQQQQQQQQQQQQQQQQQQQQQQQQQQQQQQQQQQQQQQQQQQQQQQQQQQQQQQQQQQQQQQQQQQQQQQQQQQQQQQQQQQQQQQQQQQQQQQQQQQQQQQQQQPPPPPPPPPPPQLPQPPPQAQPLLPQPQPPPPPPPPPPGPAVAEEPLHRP

Consider “HSC70bm-(QBP1)2 (MARVKKDQAEPLHRKFERQPPGSNWKWWPGIFDSNWKWWPGIFD) [HQ]”, for which the “translocation of expanded polyQ toward the lysosomes” value in test [1] was “efficient translocation”. In addition, the “subcellular distribution of 150Q-EGFP fluorescence” value in test [2] is “fluorescence intensity decreased, redistributed and partly co-localized with the lysosomal marker”.
